The text below walks through data of doi:10.1101/2022.02.13.480237 (bioRxiv, 2022).

Residue numbers refer to the chain shown, from its start.

The target in experiment [1] is T1, GST^4CS-RGA recombinant protein (REPRESSOR-OF-ga1-3) (Arabidopsis, UniProt Q9SLH3 1-587).
T1 sequence (looked up): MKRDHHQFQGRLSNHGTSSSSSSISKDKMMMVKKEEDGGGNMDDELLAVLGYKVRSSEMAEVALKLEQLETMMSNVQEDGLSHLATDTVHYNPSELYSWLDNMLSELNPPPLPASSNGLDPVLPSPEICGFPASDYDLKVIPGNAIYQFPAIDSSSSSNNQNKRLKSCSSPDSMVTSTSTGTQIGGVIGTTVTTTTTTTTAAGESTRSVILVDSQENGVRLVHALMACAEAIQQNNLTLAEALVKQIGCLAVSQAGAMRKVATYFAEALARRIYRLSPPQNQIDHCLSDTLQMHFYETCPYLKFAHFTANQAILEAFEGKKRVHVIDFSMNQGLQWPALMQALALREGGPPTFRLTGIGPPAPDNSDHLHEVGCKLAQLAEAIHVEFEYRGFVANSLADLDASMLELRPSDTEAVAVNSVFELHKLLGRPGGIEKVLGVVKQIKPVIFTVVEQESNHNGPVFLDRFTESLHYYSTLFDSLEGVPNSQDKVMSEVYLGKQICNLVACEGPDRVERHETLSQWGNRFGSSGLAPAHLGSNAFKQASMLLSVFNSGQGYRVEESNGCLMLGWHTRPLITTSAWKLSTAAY
The experiment is described as follows: pull-down.

Experiment [2] has as its target T2, GST^4CS-RGA^C374S recombinant protein (Arabidopsis, UniProt Q9SLH3 1-587, C374S).
T2 sequence (looked up): T1 sequence (looked up) with C374S
The experiment is described as follows: pull-down.

B1: His-GID1a recombinant protein (GA-… DWARF1a) (receptor, Arabidopsis, UniProt Q9MAA7 1-345, looked up)
chain: MAASDEVNLIESRTVVPLNTWVLISNFKVAYNILRRPDGTFNRHLAEYLDRKVTANANPVDGVFSFDVLIDRRINLLSRVYRPAYADQEQPPSILDLEKPVDGDIVPVILFFHGGSFAHSSANSAIYDTLCRRLVGLCKCVVVSVNYRRAPENPYPCAYDDGWIALNWVNSRSWLKSKKDSKVHIFLAGDSSGGNIAHNVALRAGESGIDVLGNILLNPMFGGNERTESEKSLDGKYFVTVRDRDWYWKAFLPEGEDREHPACNPFSPRGKSLEGVSFPKSLVVVAGLDLIRDWQLAYAEGLKKAGQEVKLMHLEKATVGFYLLPNNNHFHNVMDEISAFVNAEC
In the case of B1, the binding result in experiment [1] is reported as “binds”.

B2: His-SLY1 recombinant protein (F-box protein SLEEPY1) (natural protein, Arabidopsis, UniProt Q9STX3 1-151, looked up)
chain: MKRSTTDSDLAGDAHNETNKKMKSTEEEEIGFSNLDENLVYEVLKHVDAKTLAMSSCVSKIWHKTAQDERLWELICTRHWTNIGCGQNQLRSVVLALGGFRRLHSLYLWPLSKPNPRARFGKDELKLTLSLLSIRYYEKMSFTKRPLPESK
Take B2: the binding result in experiment [2] is recorded as “binds”.

B3: His-GID1c recombinant protein (GA-… DWARF1c) (receptor, Arabidopsis, UniProt Q940G6 1-344, looked up)
chain: MAGSEEVNLIESKTVVPLNTWVLISNFKLAYNLLRRPDGTFNRHLAEFLDRKVPANANPVNGVFSFDVIIDRQTNLLSRVYRPADAGTSPSITDLQNPVDGEIVPVIVFFHGGSFAHSSANSAIYDTLCRRLVGLCGAVVVSVNYRRAPENRYPCAYDDGWAVLKWVNSSSWLRSKKDSKVRIFLAGDSSGGNIVHNVAVRAVESRIDVLGNILLNPMFGGTERTESEKRLDGKYFVTVRDRDWYWRAFLPEGEDREHPACSPFGPRSKSLEGLSFPKSLVVVAGLDLIQDWQLKYAEGLKKAGQEVKLLYLEQATIGFYLLPNNNHFHTVMDEIAAFVNAECQ
Turning to B3, the binding result in experiment [1] is listed as “binds”.
